Experimental data taken from the supplement of paper PMC9170038.

Tested on: MS2 coat protein
Experiment: apparent KD of MS2 coat protein; designed switch direction (-1 OFF switch, 1 ON switch): -1; higher = weaker reporter binding
Summary of the method: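 The buffer was Tris-HCl pH 7.5 with KCl, MgCl2, BSA, DTT, tRNA and Tween-20. In it, SNAP-549-labelled MS2 coat protein was titrated in doubling steps from 0.7 or 1.5 nM to 3 µM over chip-bound RNA switches transcribed by stalled E. coli RNA polymerase on Illumina chips. Apparent KD is the per-design median over clusters of curve fits to normalised fluorescence.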

[1] = Eterna round: R95, input ligand: FMN 200 uM
[2] = Eterna round: R95, input ligand: microRNA oligo, concentration not stated
[3] = Eterna round: R95, input ligand: none
[4] = input ligand: microRNA oligo, concentration not stated

For “AGUAGGAGAGGAUAUACAUGAAGUCGAAAGACUUCGACUCAACAUGAGGAUCACCCAUGUAGAAGGCUCCUACA [Omei Ex2 BD A7] (Eterna round: R97, puzzle: Exclusion 2)”, the “apparent KD of MS2 coat protein” value (input ligand: FMN 200 uM) was 126 nM and the “apparent KD of MS2 coat protein” value (input ligand: none) was 47.3 nM.

With “AGUAGGUCUACCUUGGUGGAUCUGCAUAAUGCAAGUGUUACAUGAGGAUCACCCAUGUCCUCAUUUGCUCGUCUUAU [JL turnoff v2 99.22] (puzzle: Sensor v3, turn-off variant 2)” the “apparent KD of MS2 coat protein” value [1] was 39.4 nM, the “apparent KD of MS2 coat protein” value [2] was 105 nM and the “apparent KD of MS2 coat protein” value [3] was 43.5 nM.

With “AGUAGUAGUAUCCGUUCUUACAUGAGGAUCACCCAUGUUUCUAGACGUGCACGCGAUGCUCGUCAGACUACCAGAUG [salish99_TOv1_r3_054] (puzzle: Sensor v3, turn-off variant 1)” the “apparent KD of MS2 coat protein” value [1] was 61.2 nM, the “apparent KD of MS2 coat protein” value [2] was 72.3 nM and the “apparent KD of MS2 coat protein” value [3] was 68.9 nM.

In the case of “AGUCGUAGACAGGAUAUGCGGCUAAUAAAUAAAGCAGAAGGGUCUACUUGAGGAUCACCCAAGUGGGCGGUCAA [jl-ex6-4.21 ViennaUCT mod] (Eterna round: R97, puzzle: Exclusion 6)”, the “apparent KD of MS2 coat protein” value (input ligand: FMN 200 uM) was 186 nM and the “apparent KD of MS2 coat protein” value (input ligand: none) was 51.8 nM.

“AGUGCGUAUGUGAGGAUAUGCUGGUCCUUGGCUCGGCAGAAGGCACAUGAGGAUCACCCAUGUGGUGUCGUACG [salish99_Bmod_ex4_065] (puzzle: Brourd's mod of Exclusion 4)” was tested, and the “apparent KD of MS2 coat protein” value [2] was 48.8 nM.

In the case of “AGUGUGUUAGGAUAUCGGAUAUGCUGGAGGAGGUGGAGUUACGAGAAGGAACAUGAGGAUCACCCAUGUAGGAC [JR_Exclu4_Sub049] (puzzle: Exclusion 4)”, the “apparent KD of MS2 coat protein” value [2] was 25.7 nM.

With “AGUUAGAUAGGAUAUGCCCGAGAUAACAUGAGGAUCACCCAUGUGACCGAAUCUAUUCUAGCAGAAGGGUUUAUGA [Mod of ViennaUCT 19 - Jieux - Exclusion 5] (Eterna round: R97, puzzle: Exclusion 5)” the “apparent KD of MS2 coat protein” value (input ligand: FMN 200 uM) was 40.2 nM and the “apparent KD of MS2 coat protein” value (input ligand: none) was 95 nM.

“AGUUAUGUAGGAUAUGCACGUGACAACUUGAGGAUCACCCAAGUGAUUGCAGGCUGGGCGGCAGAAGGGCAGUUGU [Diedbi] (Eterna round: R97, puzzle: Exclusion 5)” was tested, and the “apparent KD of MS2 coat protein” value (input ligand: FMN 200 uM) was 153 nM and the “apparent KD of MS2 coat protein” value (input ligand: none) was 104 nM.

With “AGUUAUUCAGGAUAUGGUGUGUUAUACAUGAGGAUCACCCAUGUGGGUCCUGGUUUGGCCUCAGAAGGGAAUGUUA [salish99_ex5_r4_123] (Eterna round: R97, puzzle: Exclusion 5)” the “apparent KD of MS2 coat protein” value (input ligand: FMN 200 uM) was 507 nM and the “apparent KD of MS2 coat protein” value (input ligand: none) was 600 nM.

“AGUUGGCGAGGAUAUACAUGAGGAUCACCCAUGUGAAAGAGAAGAGUGAGGAAGAAAAGUAGAAGGCGCUGACA [Mat - Exclusion 3 - Mod of Salish D39] (puzzle: Exclusion 3)” was tested, and the “apparent KD of MS2 coat protein” value [1] was 135 nM, the “apparent KD of MS2 coat protein” value [2] was 69.3 nM and the “apparent KD of MS2 coat protein” value [3] was 75.2 nM.

“AGUUUUAAUGAGGAUAUCGUAUUGGAUAUAGUGCGAGAAGGCAUUACAUGAGGAUCACCCAUGUUUUGUUGGGA [JR_Ex6_Sub008] (Eterna round: R97, puzzle: Exclusion 6)” was tested, and the “apparent KD of MS2 coat protein” value (input ligand: FMN 200 uM) was 58.1 nM and the “apparent KD of MS2 coat protein” value (input ligand: none) was 24.5 nM.

For “AUAAGCUUUGAGAUCCUUAACAUGAGGAUCACCCAUGUUCGUCUUAUGAUGGUCUGAUCCCUGAGGAUCGGACCGUG [Mat - Sensor v3 - turn-off var 1 - JL Mod - D2] (puzzle: Sensor v3, turn-off variant 1)”, the “apparent KD of MS2 coat protein” value [1] was 277 nM, the “apparent KD of MS2 coat protein” value [2] was 5.74 nM and the “apparent KD of MS2 coat protein” value [3] was 380 nM.

In the case of “AUAAGGGCAGGAUAUGCAGAAAAGAUUGGCGUGGUCCUGACACAUGAGGAUCACCCAUGUAGAAGGGCCUAGCC [Maquzaar] (Eterna round: R97, puzzle: Exclusion 2)”, the “apparent KD of MS2 coat protein” value (input ligand: FMN 200 uM) was 13.5 nM and the “apparent KD of MS2 coat protein” value (input ligand: none) was 14.8 nM.

For “AUAAUACAUGUAGGAUAUCUGCACGUUUAGUGCAGAGAAGGACAUGAGGAUCACCCAUGUAAUUAAGAUCAAUUAUUAAAUUAU [ENG1/3-D2] (Eterna round: R96, puzzle: Exclusion NG 1)”, the “apparent KD of MS2 coat protein” value (input ligand: FMN 200 uM) was 293 nM, the “apparent KD of MS2 coat protein” value [4] was 54.7 nM and the “apparent KD of MS2 coat protein” value (input ligand: none) was 66.2 nM.

In the case of “AUAAUACAUGUAGGAUAUGCGUGGCGAAGCUAUGCAGAAGGACAUGAGGAUCACCCAUGUCUUAGCGUCUGCGUACAGAUGCUA [JL eng1 1.35 mod 2] (Eterna round: R96, puzzle: Exclusion NG 1)”, the “apparent KD of MS2 coat protein” value (input ligand: FMN 200 uM) was 27.9 nM, the “apparent KD of MS2 coat protein” value [4] was 12.1 nM and the “apparent KD of MS2 coat protein” value (input ligand: none) was 16.4 nM.

With “AUAAUGUAAGGAUAUCAGUCGACUAGCUGCGGCUAGUCGACUGAGAAGGUACAUGAGGAUCACCCAUGUGAAUA [E4/16-A3] (Eterna round: R97, puzzle: Exclusion 4)” the “apparent KD of MS2 coat protein” value (input ligand: FMN 200 uM) was 224 nM and the “apparent KD of MS2 coat protein” value (input ligand: none) was 41.7 nM.

In the case of “AUAAUGUAAGGAUAUCAGUCGUUAAUAAUUAAUUAAUCGACUGAGAAGGUACAUGAGGAUCACCCAUGUGAUCA [E4/8-B2] (Eterna round: R97, puzzle: Exclusion 4)”, the “apparent KD of MS2 coat protein” value (input ligand: FMN 200 uM) was 44.1 nM and the “apparent KD of MS2 coat protein” value (input ligand: none) was 1000 nM.

For “AUAAUGUCAGGAUAUCAGUCGACUAGCGAUAGCUAGUCGACUGAGAAGGGACAUGAGGAUCACCCAUGUGUUUC [E4/14-A4] (Eterna round: R97, puzzle: Exclusion 4)”, the “apparent KD of MS2 coat protein” value (input ligand: FMN 200 uM) was 2.73 nM and the “apparent KD of MS2 coat protein” value (input ligand: none) was 170 nM.

For “AUAAUGUCAGGAUAUCAGUCGUACAGCUGCGGCUGUACGACUGAGAAGGGACAUGAGGAUCACCCAUGUGGUCA [E4/6-A3] (Eterna round: R97, puzzle: Exclusion 4)”, the “apparent KD of MS2 coat protein” value (input ligand: FMN 200 uM) was 20.2 nM and the “apparent KD of MS2 coat protein” value (input ligand: none) was 236 nM.

With “AUAAUGUCAGGAUAUCGAACUUACUACUUCGGUAGUAAGUUCGAGAAGGGACAUGAGGAUCACCCAUGUGAUCA [E4/1-A4] (Eterna round: R97, puzzle: Exclusion 4)” the “apparent KD of MS2 coat protein” value (input ligand: FMN 200 uM) was 41.8 nM and the “apparent KD of MS2 coat protein” value (input ligand: none) was 109 nM.

With “AUAAUGUCAGGAUAUCGAGACUACUGCCUCGGCAGUAGUCUCGAGAAGGGACAUGAGGAUCACCCAUGUGAUCA [E4/1-A2] (Eterna round: R97, puzzle: Exclusion 4)” the “apparent KD of MS2 coat protein” value (input ligand: FMN 200 uM) was 831 nM and the “apparent KD of MS2 coat protein” value (input ligand: none) was 45.2 nM.

With “AUACCACGAGGAUAUCGUCUAUAAUACAUGAGGAUCACCCAUGUUAUAUCUGUAAUGUUUCGAGAAGGCGUUUGUU [JR_E5_Sub085] (puzzle: Exclusion 5)” the “apparent KD of MS2 coat protein” value [2] was 21.3 nM.

In the case of “AUACCACGAGGAUAUCGUCUAUUUCACAUGAGGAUCACCCAUGUUAUCCUUGUUUCGUUUCGAGAAGGCGUGUUUU [JR_E5_Sub076] (puzzle: Exclusion 5)”, the “apparent KD of MS2 coat protein” value [2] was 43.8 nM.

With “AUACUUGCGAAGGAUAUGUAUCAAAGGAACGAAACAGAAGGUUGAACAUGAGGAUCACCCAUGUGUUCCUCGGA [Eternabot (Original) Solution 40] (Eterna round: R97, puzzle: Exclusion 6)” the “apparent KD of MS2 coat protein” value (input ligand: FMN 200 uM) was 272 nM and the “apparent KD of MS2 coat protein” value (input ligand: none) was 235 nM.

For “AUAGUAGAAGUGAGGAUAUCGUAGAUUUUUUGAAACGAGAAGGCACAUGAGGAUCACCCAUGUAAGAUGGAGGU [JR_BMOE4_Sub052] (puzzle: Brourd's mod of Exclusion 4)”, the “apparent KD of MS2 coat protein” value [1] was 236 nM, the “apparent KD of MS2 coat protein” value [2] was 219 nM and the “apparent KD of MS2 coat protein” value [3] was 319 nM.

“AUAUAGAUAGUCAGGAUAUUCUAGUGAUAACAGUAGGAGAAGGGACAUGAGGAUCACCCAUGUAGAUAGUGCAC [Brourd's EX4 #15] (Eterna round: R97, puzzle: Brourd's mod of Exclusion 4)” was tested, and the “apparent KD of MS2 coat protein” value (input ligand: FMN 200 uM) was 42.9 nM and the “apparent KD of MS2 coat protein” value (input ligand: none) was 27 nM.

“AUAUUAAUAUAGGAUAUCGAAUUUAUAAAUUAUCGAGAAGGAUAAACAUGAGGAUCACCCAUGUGGUAUCAUGG [Mat - Exclusion 6 - JL Mod - D42] (puzzle: Exclusion 6)” was tested, and the “apparent KD of MS2 coat protein” value [1] was 239 nM, the “apparent KD of MS2 coat protein” value [2] was 222 nM and the “apparent KD of MS2 coat protein” value [3] was 346 nM.

For “AUAUUGUGAGGAUAUGAACUUAGUAACGAAAGAUACUAAGUUCAGAAGGCACAUGAGGAUCACCCAUGUUUCUC [Long static hairpin v11] (Eterna round: R97, puzzle: Exclusion 4)”, the “apparent KD of MS2 coat protein” value (input ligand: FMN 200 uM) was 596 nM and the “apparent KD of MS2 coat protein” value (input ligand: none) was 68.1 nM.

For “AUAUUGUGAGGAUAUGAACUUAGUAUCGAAAGAAACUAAGUUCAGAAGGCACAUGAGGAUCACCCAUGUUUCUC [Long static hairpin v10] (Eterna round: R97, puzzle: Exclusion 4)”, the “apparent KD of MS2 coat protein” value (input ligand: FMN 200 uM) was 566 nM and the “apparent KD of MS2 coat protein” value (input ligand: none) was 63.2 nM.

“AUAUUUAAUGAGGAUAUCGUUGUAGGUAUAUAGCGAGAAGGCAUUACAUGAGGAUCACCCAUGUAGUGUGGGUU [JR_Ex6_Sub021] (Eterna round: R97, puzzle: Exclusion 6)” was tested, and the “apparent KD of MS2 coat protein” value (input ligand: FMN 200 uM) was 78.7 nM and the “apparent KD of MS2 coat protein” value (input ligand: none) was 23.7 nM.

“AUCAGCUCGUCAGGAUAUAUAUACAUGAGGAUCACCCAUGUAAGAUCAGGCUUCGGCCAAUGUAUAUAGAAGGGACGAGCUGAU [ENG2/11-B3] (Eterna round: R96, puzzle: Exclusion NG 2)” was tested, and the “apparent KD of MS2 coat protein” value (input ligand: FMN 200 uM) was 1550 nM, the “apparent KD of MS2 coat protein” value [4] was 371 nM and the “apparent KD of MS2 coat protein” value (input ligand: none) was 771 nM.
